# Article PMC5155031
# Legend:
# Assay in all cases: dose-dependent binding with Scatchard plot analysis
# [1] = molecular target: mIgCLL6-2, CLL-derived monoclonal Igγ1 antibody of clonotype CLL6-2
# [2] = molecular target: mIgCLL5-1, CLL-derived monoclonal Igγ1 antibody of clonotype CLL5-1
# [3] = molecular target: mIgCLL2-1, CLL-derived monoclonal Igγ1 antibody of clonotype CLL2
# [4] = molecular target: mIgCLL3-2, CLL-derived monoclonal Igγ1 antibody of clonotype CLL3
# [5] = molecular target: mIgCLL5-2, CLL-derived monoclonal Igγ1 antibody of clonotype CLL5-2
# [6] = molecular target: mIgCLL2-2, CLL-derived monoclonal Igγ1 antibody of clonotype CLL2
# [7] = molecular target: mIgCLL6-1, CLL-derived monoclonal Igγ1 antibody of clonotype CLL6-1
# [8] = molecular target: mIgCLL3-1, CLL-derived monoclonal Igγ1 antibody of clonotype CLL3
binder,measurement,setting,value
CTTVIPERC [pCLL6-2 mimotope],Kd,[1],22.7 nM
CFSDDEWWC [pCLL5-1 mimotope],Kd,[2],7.08 nM
CNTYSVSLC [pCLL2-1 mimotope],Kd,[3],10.8 nM
CDVWHSAYC [pCLL3-2 mimotope],Kd,[4],5.64 nM
CPPFTNYEC [pCLL5-2 mimotope],Kd,[5],7.32 nM
CKSYSVSLC [pCLL2-2 mimotope],Kd,[6],7.57 nM
CNQDWHKKC [pCLL6-1 mimotope],Kd,[7],57.5 nM
CPPQSVTEC [pCLL3-1 mimotope],Kd,[8],22.1 nM
